The target of this data set is T1, TatD (Escherichia coli K12, UniProt P27859 1-260).
T1 sequence: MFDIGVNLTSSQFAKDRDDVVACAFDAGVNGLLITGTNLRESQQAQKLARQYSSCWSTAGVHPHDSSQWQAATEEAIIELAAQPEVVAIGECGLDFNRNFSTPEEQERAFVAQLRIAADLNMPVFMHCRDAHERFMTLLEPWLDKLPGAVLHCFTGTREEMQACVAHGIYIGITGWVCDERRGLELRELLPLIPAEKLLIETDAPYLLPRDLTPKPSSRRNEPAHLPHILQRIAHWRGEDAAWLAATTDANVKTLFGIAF
The data set can be described thus: X-ray crystallography 2.9 A; no metal ion identified; only trinucleotide GCT seen, weak density, occupancy 0.7, inactive conformation, likely cleaved product; Co-crystals: TatD 7-8 mg/ml in 10 mM MOPS, 250 mM NaCl, DNA at 1:1.2 (TatD:DNA); reservoir 4% Tacsmate pH 4, 12% PEG 3350; temperature not stated. Nuclease assays (turnover only) not listed. The note with it: protein: recombinant; tags: C-terminal His-tag (pET22b); single strand; only 5'-GCT-3' modelled (digestion product or ordered 3' end).

For the molecule GCTTAGCT (ssDNA) [8-nt ssDNA used for co-crystallization], the binding result is recorded as “binds”.

Values taken from PMC4176340, “Structure and function of TatD exonuclease in DNA repair”.
